Legend:
TLR2 = TLR2 (UniProt O60603); assay: SPR; TLR2 or CD14 (ligands) immobilised on a CM5 chip; different SIC concentrations as analyte; 1:1 Langmuir fit
CD14 = CD14 (UniProt P08571); assay: as above
Sequence of UniProt P08571 (P08571 20-345): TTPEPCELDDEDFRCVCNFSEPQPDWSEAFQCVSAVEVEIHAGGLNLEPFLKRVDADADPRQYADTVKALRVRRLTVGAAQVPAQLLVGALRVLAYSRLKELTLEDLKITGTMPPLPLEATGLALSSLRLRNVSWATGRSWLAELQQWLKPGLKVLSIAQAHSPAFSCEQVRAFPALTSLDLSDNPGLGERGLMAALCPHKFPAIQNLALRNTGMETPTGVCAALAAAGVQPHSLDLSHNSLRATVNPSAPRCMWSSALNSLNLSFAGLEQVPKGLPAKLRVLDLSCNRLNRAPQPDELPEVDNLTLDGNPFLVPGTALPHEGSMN

Sequence of UniProt O60603 (O60603 21-784): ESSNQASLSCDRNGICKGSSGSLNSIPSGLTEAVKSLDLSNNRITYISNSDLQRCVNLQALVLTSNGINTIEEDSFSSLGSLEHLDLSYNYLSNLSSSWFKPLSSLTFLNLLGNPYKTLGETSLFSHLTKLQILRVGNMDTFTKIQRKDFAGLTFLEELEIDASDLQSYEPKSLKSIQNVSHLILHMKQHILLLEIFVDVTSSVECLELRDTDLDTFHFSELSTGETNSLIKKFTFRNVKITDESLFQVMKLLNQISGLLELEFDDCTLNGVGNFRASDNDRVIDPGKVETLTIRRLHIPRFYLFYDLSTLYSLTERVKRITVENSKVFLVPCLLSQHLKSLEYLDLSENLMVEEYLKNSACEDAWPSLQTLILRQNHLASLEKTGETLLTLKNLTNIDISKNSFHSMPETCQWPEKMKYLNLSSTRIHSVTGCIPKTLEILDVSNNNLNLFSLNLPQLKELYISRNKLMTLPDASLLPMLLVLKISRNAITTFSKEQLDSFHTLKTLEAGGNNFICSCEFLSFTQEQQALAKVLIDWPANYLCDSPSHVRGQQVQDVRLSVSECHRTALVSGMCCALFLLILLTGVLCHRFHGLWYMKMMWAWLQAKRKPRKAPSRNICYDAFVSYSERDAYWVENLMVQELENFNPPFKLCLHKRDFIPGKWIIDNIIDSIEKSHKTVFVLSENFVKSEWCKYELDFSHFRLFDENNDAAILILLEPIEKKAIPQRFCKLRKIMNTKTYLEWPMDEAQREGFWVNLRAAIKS

Substance: Streptococcal inhibitor of complement (SIC) from S. pyogenes M1 strain AP1 (natural protein)
- Kd (TLR2): 12.9 µM
- Kd (CD14): 2.52 µM

— paper PMC8027542
